Experimental data as given in US20200317768A1 (published 2020).

T1: human FcγRIIaH extracellular domain, C-terminal His-tag (human, UniProt P12318 34-217)
T1 construct: also called human FcγRIIa (type H); FcgRIIaH
T1 sequence: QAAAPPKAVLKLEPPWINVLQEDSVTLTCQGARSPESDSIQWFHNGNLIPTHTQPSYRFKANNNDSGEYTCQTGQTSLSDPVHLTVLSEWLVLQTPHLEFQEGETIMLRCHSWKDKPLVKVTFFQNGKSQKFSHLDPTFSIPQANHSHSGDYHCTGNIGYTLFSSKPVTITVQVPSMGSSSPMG

T2: human FcγRIIaR extracellular domain, C-terminal His-tag (human, UniProt P12318 34-217)
T2 construct: also called human FcγRIIa (type R); FcgRIIaR
T2 chain: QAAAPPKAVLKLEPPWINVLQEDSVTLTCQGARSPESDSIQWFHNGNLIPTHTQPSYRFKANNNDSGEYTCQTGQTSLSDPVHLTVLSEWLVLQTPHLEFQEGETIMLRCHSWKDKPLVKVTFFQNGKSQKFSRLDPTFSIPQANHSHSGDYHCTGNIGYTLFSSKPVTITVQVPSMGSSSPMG

T3: human FcγRIIb extracellular domain, C-terminal His-tag (human, UniProt P31994 43-217)
T3 construct: also called FcgRIIb (human)
T3 sequence: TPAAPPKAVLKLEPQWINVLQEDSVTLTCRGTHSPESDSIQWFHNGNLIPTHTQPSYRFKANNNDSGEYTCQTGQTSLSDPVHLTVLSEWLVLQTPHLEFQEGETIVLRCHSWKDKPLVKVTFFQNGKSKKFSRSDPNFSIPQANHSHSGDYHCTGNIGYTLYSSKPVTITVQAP


Key:
Assay in all cases: SPR 25C; FcgR bound per captured antibody, relative to parent B3
[1] = biological target: T1, human FcγRIIaH extracellular domain, …
[2] = biological target: T2, human FcγRIIaR extracellular domain, …
[3] = biological target: T3, human FcγRIIb extracellular domain, …

Row | Binding to human FcgRs (parent B3 = 100) [1] [parent B3 = 100] | Binding to human FcgRs (parent B3 = 100) [2] [parent B3 = 100] | Binding to human FcgRs (parent B3 = 100) [3] [parent B3 = 100] | Binder
1 | 54 | 81 | 75 | GpH7-B3 variant G236N/GpL16-k0 (antibody, human IgG1, kappa) heavy: not shown light: DIVMTQSPLSLPVTPGEPASISCQASESLVHSNRNTYLHWYLQKPGQSPQLLIYKVSNRFSGVPDRFSGSGSGTDFTLKISRVEAEDVGVYYCSQNTHVPPTFGQGTKVEIERTVAAPSVFIFPPSDEQLKSGTASVVCLLNNFYPREAKVQWKVDNALQSGNSQESVTEQDSKDSTYSLSSTLTLSKADYEKHKVYACEVTHQGLSSPVTKSFNRGEC
2 | 165 | 168 | 94 | GpH7-B3 variant G236A/GpL16-k0 (antibody, human IgG1, kappa) heavy: not shown light: DIVMTQSPLSLPVTPGEPASISCQASESLVHSNRNTYLHWYLQKPGQSPQLLIYKVSNRFSGVPDRFSGSGSGTDFTLKISRVEAEDVGVYYCSQNTHVPPTFGQGTKVEIERTVAAPSVFIFPPSDEQLKSGTASVVCLLNNFYPREAKVQWKVDNALQSGNSQESVTEQDSKDSTYSLSSTLTLSKADYEKHKVYACEVTHQGLSSPVTKSFNRGEC
3 | 142 | 131 | 117 | GpH7-B3 variant G236E/GpL16-k0 (antibody, human IgG1, kappa) heavy: not shown light: DIVMTQSPLSLPVTPGEPASISCQASESLVHSNRNTYLHWYLQKPGQSPQLLIYKVSNRFSGVPDRFSGSGSGTDFTLKISRVEAEDVGVYYCSQNTHVPPTFGQGTKVEIERTVAAPSVFIFPPSDEQLKSGTASVVCLLNNFYPREAKVQWKVDNALQSGNSQESVTEQDSKDSTYSLSSTLTLSKADYEKHKVYACEVTHQGLSSPVTKSFNRGEC
4 | 147 | 161 | 87 | GpH7-B3 variant G236S/GpL16-k0 (antibody, human IgG1, kappa) heavy: not shown light: DIVMTQSPLSLPVTPGEPASISCQASESLVHSNRNTYLHWYLQKPGQSPQLLIYKVSNRFSGVPDRFSGSGSGTDFTLKISRVEAEDVGVYYCSQNTHVPPTFGQGTKVEIERTVAAPSVFIFPPSDEQLKSGTASVVCLLNNFYPREAKVQWKVDNALQSGNSQESVTEQDSKDSTYSLSSTLTLSKADYEKHKVYACEVTHQGLSSPVTKSFNRGEC
5 | 129 | 139 | 198 | GpH7-B3 variant I332D/GpL16-k0 (antibody, human IgG1, kappa) heavy: not shown light: DIVMTQSPLSLPVTPGEPASISCQASESLVHSNRNTYLHWYLQKPGQSPQLLIYKVSNRFSGVPDRFSGSGSGTDFTLKISRVEAEDVGVYYCSQNTHVPPTFGQGTKVEIERTVAAPSVFIFPPSDEQLKSGTASVVCLLNNFYPREAKVQWKVDNALQSGNSQESVTEQDSKDSTYSLSSTLTLSKADYEKHKVYACEVTHQGLSSPVTKSFNRGEC
6 | 74 | 0 | 95 | GpH7-B3 variant G237D/GpL16-k0 (antibody, human IgG1, kappa) heavy: not shown light: DIVMTQSPLSLPVTPGEPASISCQASESLVHSNRNTYLHWYLQKPGQSPQLLIYKVSNRFSGVPDRFSGSGSGTDFTLKISRVEAEDVGVYYCSQNTHVPPTFGQGTKVEIERTVAAPSVFIFPPSDEQLKSGTASVVCLLNNFYPREAKVQWKVDNALQSGNSQESVTEQDSKDSTYSLSSTLTLSKADYEKHKVYACEVTHQGLSSPVTKSFNRGEC
7 |  | 55 | 110 | GpH7-B3 variant P271D/GpL16-k0 (antibody, human IgG1, kappa) heavy: not shown light: DIVMTQSPLSLPVTPGEPASISCQASESLVHSNRNTYLHWYLQKPGQSPQLLIYKVSNRFSGVPDRFSGSGSGTDFTLKISRVEAEDVGVYYCSQNTHVPPTFGQGTKVEIERTVAAPSVFIFPPSDEQLKSGTASVVCLLNNFYPREAKVQWKVDNALQSGNSQESVTEQDSKDSTYSLSSTLTLSKADYEKHKVYACEVTHQGLSSPVTKSFNRGEC
8 | 109 | 91 | 212 | GpH7-B3 variant G236D/GpL16-k0 (antibody, human IgG1, kappa) heavy: not shown light: DIVMTQSPLSLPVTPGEPASISCQASESLVHSNRNTYLHWYLQKPGQSPQLLIYKVSNRFSGVPDRFSGSGSGTDFTLKISRVEAEDVGVYYCSQNTHVPPTFGQGTKVEIERTVAAPSVFIFPPSDEQLKSGTASVVCLLNNFYPREAKVQWKVDNALQSGNSQESVTEQDSKDSTYSLSSTLTLSKADYEKHKVYACEVTHQGLSSPVTKSFNRGEC
9 | 138 | 127 | 195 | GpH7-B3 variant K326T/GpL16-k0 (antibody, human IgG1, kappa) heavy: not shown light: DIVMTQSPLSLPVTPGEPASISCQASESLVHSNRNTYLHWYLQKPGQSPQLLIYKVSNRFSGVPDRFSGSGSGTDFTLKISRVEAEDVGVYYCSQNTHVPPTFGQGTKVEIERTVAAPSVFIFPPSDEQLKSGTASVVCLLNNFYPREAKVQWKVDNALQSGNSQESVTEQDSKDSTYSLSSTLTLSKADYEKHKVYACEVTHQGLSSPVTKSFNRGEC
10 | 49 |  | 61 | GpH7-B3 variant S239P/GpL16-k0 (antibody, human IgG1, kappa) heavy: not shown light: DIVMTQSPLSLPVTPGEPASISCQASESLVHSNRNTYLHWYLQKPGQSPQLLIYKVSNRFSGVPDRFSGSGSGTDFTLKISRVEAEDVGVYYCSQNTHVPPTFGQGTKVEIERTVAAPSVFIFPPSDEQLKSGTASVVCLLNNFYPREAKVQWKVDNALQSGNSQESVTEQDSKDSTYSLSSTLTLSKADYEKHKVYACEVTHQGLSSPVTKSFNRGEC
11 | 173 | 142 | 307 | GpH7-B3 variant H268D/GpL16-k0 (antibody, human IgG1, kappa) heavy: not shown light: DIVMTQSPLSLPVTPGEPASISCQASESLVHSNRNTYLHWYLQKPGQSPQLLIYKVSNRFSGVPDRFSGSGSGTDFTLKISRVEAEDVGVYYCSQNTHVPPTFGQGTKVEIERTVAAPSVFIFPPSDEQLKSGTASVVCLLNNFYPREAKVQWKVDNALQSGNSQESVTEQDSKDSTYSLSSTLTLSKADYEKHKVYACEVTHQGLSSPVTKSFNRGEC
12 | 169 | 132 | 283 | GpH7-B3 variant H268E/GpL16-k0 (antibody, human IgG1, kappa) heavy: not shown light: DIVMTQSPLSLPVTPGEPASISCQASESLVHSNRNTYLHWYLQKPGQSPQLLIYKVSNRFSGVPDRFSGSGSGTDFTLKISRVEAEDVGVYYCSQNTHVPPTFGQGTKVEIERTVAAPSVFIFPPSDEQLKSGTASVVCLLNNFYPREAKVQWKVDNALQSGNSQESVTEQDSKDSTYSLSSTLTLSKADYEKHKVYACEVTHQGLSSPVTKSFNRGEC
13 | 37 | 12 | 46 | GpH7-B3 variant A327I/GpL16-k0 (antibody, human IgG1, kappa) heavy: not shown light: DIVMTQSPLSLPVTPGEPASISCQASESLVHSNRNTYLHWYLQKPGQSPQLLIYKVSNRFSGVPDRFSGSGSGTDFTLKISRVEAEDVGVYYCSQNTHVPPTFGQGTKVEIERTVAAPSVFIFPPSDEQLKSGTASVVCLLNNFYPREAKVQWKVDNALQSGNSQESVTEQDSKDSTYSLSSTLTLSKADYEKHKVYACEVTHQGLSSPVTKSFNRGEC
